From PMC9774250

Columns and labels:
[1] = test system: apo-YgaV (His-tagged) (Escherichia coli (WT genomic DNA; BW25113?)); assay: EMSA; conditions: EMSA: 50 nM probe, 25 mM Tris-HCl pH 8.0, 100 mM NaCl, 2 mM MgCl2, 6% glycerol, 50 mg/mL heparin (so in the source), room temperature 30 min, footprint: 100 nM DNA …
[2] = test system: heme-YgaV (His-tagged, hemin-reconstituted) (Escherichia coli (WT genomic DNA; BW25113?)); assay: EMSA; conditions: heme; 10 mM Na2S (oxidized); EMSA: 50 nM probe, 25 mM Tris-HCl pH 8.0, 100 mM NaCl, 2 mM MgCl2, 6% glycerol, 50 mg/mL heparin (so in the source), room temperature 30 min; footprint: 100 nM DNA …

Row | Substance | binding signal ([1]; 1 mM DTT (reduced), scale: fold higher YgaV concentration for shift than ygaV promoter) | binding signal (fold higher EC50 than DTT-reduced) ([1]; 10 mM Na2S (oxidized)) | binding signal (fold higher EC50 than DTT-reduced) [2]
1 | katG promoter | 20 | – | –
2 | ygaVP promoter | – | 5 | 5
